One assay has as its target T1, human TNFR2 on cells (human, UniProt P20333 23-461).
T1 construct: whole, on cells; also called TNFR2 on Jurkat clone H6; human TNFR2 on CD4+ and CD8+ T cells
T1 sequence (looked up): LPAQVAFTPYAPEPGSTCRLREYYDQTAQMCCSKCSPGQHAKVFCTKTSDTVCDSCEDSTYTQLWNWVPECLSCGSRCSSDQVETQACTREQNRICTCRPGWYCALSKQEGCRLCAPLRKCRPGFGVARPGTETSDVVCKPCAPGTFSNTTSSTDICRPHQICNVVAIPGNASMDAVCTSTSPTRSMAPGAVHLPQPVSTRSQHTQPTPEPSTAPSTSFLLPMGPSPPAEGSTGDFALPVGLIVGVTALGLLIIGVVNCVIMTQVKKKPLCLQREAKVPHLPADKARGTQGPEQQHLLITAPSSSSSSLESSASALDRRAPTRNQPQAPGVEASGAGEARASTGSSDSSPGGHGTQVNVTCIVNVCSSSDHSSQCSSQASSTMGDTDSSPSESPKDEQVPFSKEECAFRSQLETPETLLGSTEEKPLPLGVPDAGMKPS
Briefly: flow cytometry on human PBMC, antibody at 10 ug/mL, anti-human Fc-PE secondary. The method, then:
The following day 0.3×10⁶ PBMC were counted and washed with PBS (Lonza). PBMCs were resuspended in Fixable Viability Stain 575V (BD) diluted 1:1,000 in PBS and incubated for 10 minutes. PBMCs were then washed twice in PBS to remove residual viability stain. PBMCs were then resuspended in Horizon Brilliant Stain Buffer (BD) with 10 uL per test of human Fc receptor binding inhibitor (eBioscience) and incubated on ice for 20 minutes to block Fc receptors. […] PBMCs were incubated 20 minutes on ice and then washed three times with 2% FBS PBS. To visualize TNFR chimeric antibody binding, PBMCs were resuspended in goat anti-human Fc-PE F(ab′)₂ secondary reagent (Jackson ImmunoResearch) diluted 1:200 in 2% FBS PBS and incubated on ice for 20 minutes. Cells were then washed three times in 2% FBS PBS and resuspended in 200 uL 2% FBS PBS for flow cytometry analysis using a BD FACS Celesta instrument and FACS Diva software. T cells were analyzed for chimeric TNFR2 binding by gating on viable cells defined as lymphocytes using forward and side scatter and as T cells by anti-CD3 staining. CD4⁺ and CD8⁺ subsets were identified by commercially available specific antibody conjugates.
For orientation: A flow cytometer gives signals particle by particle.

In assay [1] the target is T2, cynomolgus TNFR2 on cells (cynomolgus).
T2 construct: whole, on cells; also called cynomolgus TNFR2 on CD4+ and CD8+ T cells
Briefly: flow cytometry on cynomolgus PBMC, antibody at 10 ug/mL, anti-human Fc-PE secondary. The method, then:
Cynomolgus peripheral blood mononuclear cells (PBMCs) from two independent donors were isolated by diluting whole blood (SNBL USA) 1:1 in PBS (Lonza), layering over Ficoll-Paque Plus (GE Healthcare), and centrifuging for 35 minutes at 400×g. The PBMC fraction was removed, washed 3 times in 2% FBS PBS and counted. 0.3×10⁶ PBMC were resuspended in Fixable Viability Stain 575V (BD) diluted 1:1000 in PBS and incubated for 10 minutes. PBMC were then washed twice in PBS to remove residual viability stain, resuspended in Horizon Brilliant Stain Buffer (BD) with 10 uL per test of human Fc receptor binding inhibitor (eBioscience), and incubated on ice for 20 minutes to block Fc receptors. […] PBMC were incubated 20 minutes on ice and then washed three times with 2% FBS PBS. To visualize TNFR2 chimeric antibody binding, PBMC were resuspended in goat anti-human Fc-PE F(ab′)₂ secondary reagent (Jackson ImmunoResearch) diluted 1:200 in 2% FBS PBS and incubated on ice for 20 minutes. Cells were then washed three times in 2% FBS PBS and resuspended in 200 uL 2% FBS PBS for flow cytometry analysis using a BD FACS Celesta instrument and FACS Diva software. T cells were analyzed for chimeric TNFR2 binding by gating on viable cells defined as lymphocytes using forward and side scatter and as T cells by anti-CD3 staining. CD4⁺ and CD8⁺ subsets were identified using commercial specific antibody conjugates.

B1: chimeric SBT-002 (antibody, V domains shown)
VH: QVTLKESGPGILQPSQTLSLTCSFSGFSLSTSGMGVGWIRQPSGKGLEWLAHIWWDDDKFYNPSLKSQLTISKDTSRNQVFLKLTSVVTADTATYYCARLTGTRYFDYWGQGTTLTVSS
VL: DVQMTQSPSSLSASLGGKVTITCKASQDINKFIAWYQHKPGKGPRLLIHYTSTLQPGIPSKFSGSGSGRDYSFSISNLEPEDIATYYCLQYGNLWTFGGGTKLEIT
notes: also called chSBT-002
Turning to B1, in the assay with human TNFR2 on cells, the “% CD4^+ ab^+ Donor 1” value stood at 47.6%, the “% CD4^+ ab^+ Donor 2” value came to 38.3%, the “% CD8^+ ab^+ Donor 1” value was determined as 24.3% and the “% CD8^+ ab^+ Donor 2” value was 18.9%. In assay [1], the “% CD4^+ ab^+ Donor 1” value amounted to 9%, the “% CD4^+ ab^+ Donor 2” value amounted to 14.1%, the “% CD8^+ ab^+ Donor 1” value turned out to be 9.5% and the “% CD8^+ ab^+ Donor 2” value worked out at 29%.

B2: chimeric SBT-004 (antibody, V domains shown)
VH: EVQLQQSGPEVGRPGSSVKISCKASGYTFTDYIMHWVKQSPGQGLEWIGWVDPEYGSTDYAEKFKKKATLTADTSSNTAYIQLSSLTSEDTATYFCARDDGSYSPFDYWGQGVMVTVSS
VL: DIQMTQSPPSLSASLGDKVTITCQASQNINKYIAWYQQKPGKAPRLLIRYTSTLESGTPSRFSGSGSGRDYSFSISNVESEDIASYYCLQYVNLLTFGAGTKLEIK
notes: VH fused to a human IgG1 Fc domain; also called chSBT-004
B2: in the assay with human TNFR2 on cells, the “% CD4^+ ab^+ Donor 1” value was 38.4%, the “% CD4^+ ab^+ Donor 2” value stood at 26.4%, the “% CD8^+ ab^+ Donor 1” value is 18.8% and the “% CD8^+ ab^+ Donor 2” value is 16.1%. Besides, in assay [1], the “% CD4^+ ab^+ Donor 1” value turned out to be 10.2%, the “% CD4^+ ab^+ Donor 2” value was found to be 7.6%, the “% CD8^+ ab^+ Donor 1” value was 11.2% and the “% CD8^+ ab^+ Donor 2” value was found to be 18.4%.

The values are drawn from US20190202925A1 (OPI VI IP HOLDCO, published 2019).
